The text below walks through data of US20090105152A1.

Numbered stars: 1 amine (or outer) side, 2 acyl side, 3 side chain; on linkers, the order of the positions; unused ones are H or OH. Square brackets hold non-standard residues; d marks the D form. Azetidine3carboxylic = O=C(C1CN([*:1])C1)[*:2]; Izc = imidazolidine-2-carboxylic acid; Arg(Me) = CNC(=N)NCCC[C@H](N)C(=O)O; dDap = NC[C@@H](N)C(=O)O; dNMeA = CN[C@H](C)C(=O)O; Dab = NCC[C@H](N)C(=O)O; 2Abz = Nc1ccccc1C(=O)O; Aib = CC(C)(N)C(=O)O; azaGly = NNC(=O)O; βAla = NCCC(=O)O; Sar = CNCC(=O)O

To fix the notation:
B1: des(1)-Ac-[D-Tyr2,Glu3,Thr5,AzaGly7,Arg(Me)9,Trp10]MS10 (peptide)
peptide: Ac-[dY]ENTF[azaGly]L[Arg(Me)]W-NH2
SMILES: CNC(=N)NCCC[C@H](NC(=O)[C@H](CC(C)C)NC(=O)NNC(=O)[C@H](Cc1ccccc1)NC(=O)[C@@H](NC(=O)[C@H](CC(N)=O)NC(=O)[C@H](CCC(=O)O)NC(=O)[C@@H](Cc1ccc(O)cc1)NC(C)=O)[C@@H](C)O)C(=O)N[C@@H](Cc1c[nH]c2ccccc12)C(N)=O
B2: des(1)-Ac-[D-Tyr2,D-Trp3,Dab4,Thr5,AzaGly7,Arg(Me)9,Trp10]MS10 (peptide)
peptide: Ac-[dY][dW][Dab]TF[azaGly]L[Arg(Me)]W-NH2
SMILES: CNC(=N)NCCC[C@H](NC(=O)[C@H](CC(C)C)NC(=O)NNC(=O)[C@H](Cc1ccccc1)NC(=O)[C@@H](NC(=O)[C@H](CCN)NC(=O)[C@@H](Cc1c[nH]c2ccccc12)NC(=O)[C@@H](Cc1ccc(O)cc1)NC(C)=O)[C@@H](C)O)C(=O)N[C@@H](Cc1c[nH]c2ccccc12)C(N)=O
B3: des(1)-Ac-[D-Tyr2,D-Asp3,Thr5,AzaGly7,Arg(Me)9,Trp10]MS10 (peptide)
peptide: Ac-[dY][dD]NTF[azaGly]L[Arg(Me)]W-NH2
SMILES: CNC(=N)NCCC[C@H](NC(=O)[C@H](CC(C)C)NC(=O)NNC(=O)[C@H](Cc1ccccc1)NC(=O)[C@@H](NC(=O)[C@H](CC(N)=O)NC(=O)[C@@H](CC(=O)O)NC(=O)[C@@H](Cc1ccc(O)cc1)NC(C)=O)[C@@H](C)O)C(=O)N[C@@H](Cc1c[nH]c2ccccc12)C(N)=O
B4: des(1)-Ac-[D-Tyr2,D-NMeAla3,Thr5,AzaGly7,Arg(Me)9,Trp10]MS10 (peptide)
peptide: Ac-[dY][dNMeA]NTF[azaGly]L[Arg(Me)]W-NH2
SMILES: CNC(=N)NCCC[C@H](NC(=O)[C@H](CC(C)C)NC(=O)NNC(=O)[C@H](Cc1ccccc1)NC(=O)[C@@H](NC(=O)[C@H](CC(N)=O)NC(=O)[C@@H](C)N(C)C(=O)[C@@H](Cc1ccc(O)cc1)NC(C)=O)[C@@H](C)O)C(=O)N[C@@H](Cc1c[nH]c2ccccc12)C(N)=O
B5: des(1)-Ac-[D-Tyr2,Leu3,Thr5,AzaGly7,Arg(Me)9,Trp10]MS10 (peptide)
peptide: Ac-[dY]LNTF[azaGly]L[Arg(Me)]W-NH2
SMILES: CNC(=N)NCCC[C@H](NC(=O)[C@H](CC(C)C)NC(=O)NNC(=O)[C@H](Cc1ccccc1)NC(=O)[C@@H](NC(=O)[C@H](CC(N)=O)NC(=O)[C@H](CC(C)C)NC(=O)[C@@H](Cc1ccc(O)cc1)NC(C)=O)[C@@H](C)O)C(=O)N[C@@H](Cc1c[nH]c2ccccc12)C(N)=O
B6: des(1)-Ac-[D-Tyr2,D-Gln3,Thr5,AzaGly7,Arg(Me)9,Trp10]MS10 (peptide)
peptide: Ac-[dY][dQ]NTF[azaGly]L[Arg(Me)]W-NH2
SMILES: CNC(=N)NCCC[C@H](NC(=O)[C@H](CC(C)C)NC(=O)NNC(=O)[C@H](Cc1ccccc1)NC(=O)[C@@H](NC(=O)[C@H](CC(N)=O)NC(=O)[C@@H](CCC(N)=O)NC(=O)[C@@H](Cc1ccc(O)cc1)NC(C)=O)[C@@H](C)O)C(=O)N[C@@H](Cc1c[nH]c2ccccc12)C(N)=O
B7: des(1)-Ac-[D-Tyr2,D-Ser3,Thr5,AzaGly7,Arg(Me)9,Trp10]MS10 (peptide)
peptide: Ac-[dY][dS]NTF[azaGly]L[Arg(Me)]W-NH2
SMILES: CNC(=N)NCCC[C@H](NC(=O)[C@H](CC(C)C)NC(=O)NNC(=O)[C@H](Cc1ccccc1)NC(=O)[C@@H](NC(=O)[C@H](CC(N)=O)NC(=O)[C@@H](CO)NC(=O)[C@@H](Cc1ccc(O)cc1)NC(C)=O)[C@@H](C)O)C(=O)N[C@@H](Cc1c[nH]c2ccccc12)C(N)=O
B8: des(1)-Ac-[D-Tyr2,Lys3,Thr5,AzaGly7,Arg(Me)9,Trp10]MS10 (peptide)
peptide: Ac-[dY]KNTF[azaGly]L[Arg(Me)]W-NH2
SMILES: CNC(=N)NCCC[C@H](NC(=O)[C@H](CC(C)C)NC(=O)NNC(=O)[C@H](Cc1ccccc1)NC(=O)[C@@H](NC(=O)[C@H](CC(N)=O)NC(=O)[C@H](CCCCN)NC(=O)[C@@H](Cc1ccc(O)cc1)NC(C)=O)[C@@H](C)O)C(=O)N[C@@H](Cc1c[nH]c2ccccc12)C(N)=O
B9: des(1)-Ac-[D-Tyr2,Abz(2)3,Thr5,AzaGly7,Arg(Me)9,Trp10]MS10 (peptide)
peptide: Ac-[dY][2Abz]NTF[azaGly]L[Arg(Me)]W-NH2
SMILES: CNC(=N)NCCC[C@H](NC(=O)[C@H](CC(C)C)NC(=O)NNC(=O)[C@H](Cc1ccccc1)NC(=O)[C@@H](NC(=O)[C@H](CC(N)=O)NC(=O)c1ccccc1NC(=O)[C@@H](Cc1ccc(O)cc1)NC(C)=O)[C@@H](C)O)C(=O)N[C@@H](Cc1c[nH]c2ccccc12)C(N)=O
B10: des(1)-Ac-[D-Tyr2,D-His3,Thr5,AzaGly7,Arg(Me)9,Trp10]MS10 (peptide)
peptide: Ac-[dY][dH]NTF[azaGly]L[Arg(Me)]W-NH2
SMILES: CNC(=N)NCCC[C@H](NC(=O)[C@H](CC(C)C)NC(=O)NNC(=O)[C@H](Cc1ccccc1)NC(=O)[C@@H](NC(=O)[C@H](CC(N)=O)NC(=O)[C@@H](Cc1c[nH]cn1)NC(=O)[C@@H](Cc1ccc(O)cc1)NC(C)=O)[C@@H](C)O)C(=O)N[C@@H](Cc1c[nH]c2ccccc12)C(N)=O
B11: des(1)-Ac-[D-Tyr2,Aib3,Thr5,AzaGly7,Arg(Me)9,Trp10]MS10 (peptide)
peptide: Ac-[dY][Aib]NTF[azaGly]L[Arg(Me)]W-NH2
SMILES: CNC(=N)NCCC[C@H](NC(=O)[C@H](CC(C)C)NC(=O)NNC(=O)[C@H](Cc1ccccc1)NC(=O)[C@@H](NC(=O)[C@H](CC(N)=O)NC(=O)C(C)(C)NC(=O)[C@@H](Cc1ccc(O)cc1)NC(C)=O)[C@@H](C)O)C(=O)N[C@@H](Cc1c[nH]c2ccccc12)C(N)=O
B12: des(1-3)-Ac-[Thr5,AzaGly7,Arg(Me)9,Trp10]MS10 (peptide)
peptide: Ac-NTF[azaGly]L[Arg(Me)]W-NH2
SMILES: CNC(=N)NCCC[C@H](NC(=O)[C@H](CC(C)C)NC(=O)NNC(=O)[C@H](Cc1ccccc1)NC(=O)[C@@H](NC(=O)[C@H](CC(N)=O)NC(C)=O)[C@@H](C)O)C(=O)N[C@@H](Cc1c[nH]c2ccccc12)C(N)=O
B13: des(1)-Ac-[D-Tyr2,D-Dap3,Thr5,AzaGly7,Arg(Me)9,Trp10]MS10 (peptide)
peptide: Ac-[dY][dDap]NTF[azaGly]L[Arg(Me)]W-NH2
SMILES: CNC(=N)NCCC[C@H](NC(=O)[C@H](CC(C)C)NC(=O)NNC(=O)[C@H](Cc1ccccc1)NC(=O)[C@@H](NC(=O)[C@H](CC(N)=O)NC(=O)[C@@H](CN)NC(=O)[C@@H](Cc1ccc(O)cc1)NC(C)=O)[C@@H](C)O)C(=O)N[C@@H](Cc1c[nH]c2ccccc12)C(N)=O
B14: des(1)-Ac-[D-Tyr2,β-Ala3,Thr5,AzaGly7,Arg(Me)9,Trp10]MS10 (peptide)
peptide: Ac-[dY][βAla]NTF[azaGly]L[Arg(Me)]W-NH2
SMILES: CNC(=N)NCCC[C@H](NC(=O)[C@H](CC(C)C)NC(=O)NNC(=O)[C@H](Cc1ccccc1)NC(=O)[C@@H](NC(=O)[C@H](CC(N)=O)NC(=O)CCNC(=O)[C@@H](Cc1ccc(O)cc1)NC(C)=O)[C@@H](C)O)C(=O)N[C@@H](Cc1c[nH]c2ccccc12)C(N)=O
B15: des(1)-Ac-[D-Tyr2,Ala3,Thr5,AzaGly7,Arg(Me)9,Trp10]MS10 (peptide)
peptide: Ac-[dY]ANTF[azaGly]L[Arg(Me)]W-NH2
SMILES: CNC(=N)NCCC[C@H](NC(=O)[C@H](CC(C)C)NC(=O)NNC(=O)[C@H](Cc1ccccc1)NC(=O)[C@@H](NC(=O)[C@H](CC(N)=O)NC(=O)[C@H](C)NC(=O)[C@@H](Cc1ccc(O)cc1)NC(C)=O)[C@@H](C)O)C(=O)N[C@@H](Cc1c[nH]c2ccccc12)C(N)=O
B16: des(1)-Ac-[D-Tyr2,Aze(3)3,Thr5,AzaGly7,Arg(Me)9,Trp10]MS10 (peptide)
peptide: Ac-[dY][Azetidine3carboxylic]NTF[azaGly]L[Arg(Me)]W-NH2
SMILES: CNC(=N)NCCC[C@H](NC(=O)[C@H](CC(C)C)NC(=O)NNC(=O)[C@H](Cc1ccccc1)NC(=O)[C@@H](NC(=O)[C@H](CC(N)=O)NC(=O)C1CN(C(=O)[C@@H](Cc2ccc(O)cc2)NC(C)=O)C1)[C@@H](C)O)C(=O)N[C@@H](Cc1c[nH]c2ccccc12)C(N)=O
B17: des(1)-Ac-[D-Tyr2,Sar3,Thr5,AzaGly7,Arg(Me)9,Trp10]MS10 (peptide)
peptide: Ac-[dY][Sar]NTF[azaGly]L[Arg(Me)]W-NH2
SMILES: CNC(=N)NCCC[C@H](NC(=O)[C@H](CC(C)C)NC(=O)NNC(=O)[C@H](Cc1ccccc1)NC(=O)[C@@H](NC(=O)[C@H](CC(N)=O)NC(=O)CN(C)C(=O)[C@@H](Cc1ccc(O)cc1)NC(C)=O)[C@@H](C)O)C(=O)N[C@@H](Cc1c[nH]c2ccccc12)C(N)=O
B18: des(1)-Ac-[D-Tyr2,Ser3,Thr5,AzaGly7,Arg(Me)9,Trp10]MS10 (peptide)
peptide: Ac-[dY]SNTF[azaGly]L[Arg(Me)]W-NH2
SMILES: CNC(=N)NCCC[C@H](NC(=O)[C@H](CC(C)C)NC(=O)NNC(=O)[C@H](Cc1ccccc1)NC(=O)[C@@H](NC(=O)[C@H](CC(N)=O)NC(=O)[C@H](CO)NC(=O)[C@@H](Cc1ccc(O)cc1)NC(C)=O)[C@@H](C)O)C(=O)N[C@@H](Cc1c[nH]c2ccccc12)C(N)=O

This test deals with human OT7T175 (metastin receptor) (human) (UniProt Q969F8). Kind of test: cell-based or functional assay.
human OT7T175 (metastin receptor) (human), sequence (Q969F8 whole entry L364H): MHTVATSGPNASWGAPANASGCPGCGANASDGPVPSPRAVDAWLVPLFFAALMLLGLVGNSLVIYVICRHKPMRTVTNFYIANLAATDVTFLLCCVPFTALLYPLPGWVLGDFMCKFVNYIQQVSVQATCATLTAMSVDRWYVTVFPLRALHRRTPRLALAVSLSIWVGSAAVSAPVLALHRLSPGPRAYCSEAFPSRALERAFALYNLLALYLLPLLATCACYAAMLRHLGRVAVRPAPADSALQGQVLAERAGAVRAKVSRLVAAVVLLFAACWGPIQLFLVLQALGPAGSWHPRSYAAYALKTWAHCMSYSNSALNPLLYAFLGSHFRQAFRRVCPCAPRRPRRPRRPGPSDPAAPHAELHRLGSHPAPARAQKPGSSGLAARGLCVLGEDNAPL
For B1, the intracellular Ca ion level-increasing activity [specific activity to Metastin (1-54)] (relative to Metastin (1-54)) is 2.2.
For B2 the value was 1.1; for B3, 3.4.
For B4 the value was 3.2.
For B5 the value was 3.4; for B6, 1.4; for B7, 3.
Molecule B8 gave an intracellular Ca ion level-increasing activity [specific activity to Metastin (1-54)] (relative to Metastin (1-54)) of 3.
As for Ac-[dY][Izc]NTF[azaGly]L[Arg(Me)]W-NH2 [des(1)-Ac-[D-Tyr2,Izc3,Thr5,AzaGly7,Arg(Me)9,Trp10]MS10], the figure is 2.3; as for B9, 3.2; as for B10, 1.6.
B11: the intracellular Ca ion level-increasing activity [specific activity to Metastin (1-54)] (relative to Metastin (1-54)) came out at 1.5.
Turning to B12, the intracellular Ca ion level-increasing activity [specific activity to Metastin (1-54)] (relative to Metastin (1-54)) worked out at 9.8.
As for B13, the figure is 2.4; as for B14, 2.6.
Molecule B15 registered an intracellular Ca ion level-increasing activity [specific activity to Metastin (1-54)] (relative to Metastin (1-54)) of 2.3.
For B16 the value was 4.1; for B17, 8.8; for B18, 2.4.
